We go through one sequence from paper PMC11299580, “Discovery of novel disease-causing mutation in SSBP1 and its correction using adenine base editor to improve mitochondrial function” (Molecular Therapy. Nucleic Acids, 2023).

The target of this data set is T1, SSBP1 Arg91Gln R91Q (Homo sapiens) (UniProt Q04837).
T1 sequence: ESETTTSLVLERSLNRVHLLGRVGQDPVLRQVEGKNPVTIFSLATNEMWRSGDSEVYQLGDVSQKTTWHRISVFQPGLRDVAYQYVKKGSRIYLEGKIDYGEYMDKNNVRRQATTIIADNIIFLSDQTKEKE
The data set can be described thus: EMSA. The note with it: 50 mM Tris pH 7.5, 150 mM NaCl, 10% glycerol, 30 min at room temperature; 2% agarose gel in 1x TBE.

pKd: −log10 of the molar value.

With “GGACTATTTATTCAATATATTTAAGAACTAATTCCAGCTGAGCGCCGG [EMSA ssDNA probe]”, the pKd is 7.69.
